According to patent US20220168402A1, “PIP4Ks SUPPRESS INSULIN SIGNALING AND ENHANCE IMMUNE FUNCTION THROUGH A CATALYTIC-INDEPENDENT MECHANISM” (Cornell University, priority 2019, published 2022):

T1: PIP5K1A (purified, in vitro kinase assay), Q99755
T1 chain: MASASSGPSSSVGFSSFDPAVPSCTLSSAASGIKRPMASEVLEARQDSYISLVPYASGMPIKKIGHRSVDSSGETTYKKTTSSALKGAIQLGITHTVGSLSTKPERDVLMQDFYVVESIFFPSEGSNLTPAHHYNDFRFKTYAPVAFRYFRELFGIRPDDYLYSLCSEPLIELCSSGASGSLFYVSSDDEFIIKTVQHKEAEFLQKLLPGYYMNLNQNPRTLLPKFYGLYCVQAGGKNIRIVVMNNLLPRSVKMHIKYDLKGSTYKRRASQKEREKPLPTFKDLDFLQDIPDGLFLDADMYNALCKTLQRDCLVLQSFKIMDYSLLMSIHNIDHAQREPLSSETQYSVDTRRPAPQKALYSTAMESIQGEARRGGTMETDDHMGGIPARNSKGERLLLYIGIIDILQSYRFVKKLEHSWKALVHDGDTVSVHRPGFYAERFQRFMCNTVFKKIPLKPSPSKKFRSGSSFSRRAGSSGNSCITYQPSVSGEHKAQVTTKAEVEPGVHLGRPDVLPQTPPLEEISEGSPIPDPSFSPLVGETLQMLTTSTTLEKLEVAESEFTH

B1: PIP4K2B (purified) (protein)
chain: MSSNCTSTTAVAVAPLSASKTKTKKKHFVCQKVKLFRASEPILSVLMWGVNHTINELSNVPVPVMLMPDDFKAYSKIKVDNHLFNKENLPSRFKFKEYCPMVFRNLRERFGIDDQDYQNSVTRSAPINSDSQGRCGTRFLTTYDRRFVIKTVSSEDVAEMHNILKKYHQFIVECHGNTLLPQFLGMYRLTVDGVETYMVVTRNVFSHRLTVHRKYDLKGSTVAREASDKEKAKDLPTFKDNDFLNEGQKLHVGEESKKNFLEKLKRDVEFLAQLKIMDYSLLVGIHDVDRAEQEEMEVEERAEDEECENDGVGGNLLCSYGTPPDSPGNLLSFPRFFGPGEFDPSVDVYAMKSHESSPKKEVYFMAIIDILTPYDTKKKAAHAAKTVKHGAGAEISTVNPEQYSKRFNEFMSNILT
B2: PIP4K2A (purified) (protein)
chain: MATPGNLGSSVLASKTKTKKKHFVAQKVKLFRASDPLLSVLMWGVNHSINELSHVQIPVMLMPDDFKAYSKIKVDNHLFNKENMPSHFKFKEYCPMVFRNLRERFGIDDQDFQNSLTRSAPLPNDSQARSGARFHTSYDKRYIIKTITSEDVAEMHNILKKYHQYIVECHGITLLPQFLGMYRLNVDGVEIYVIVTRNVFSHRLSVYRKYDLKGSTVAREASDKEKAKELPTLKDNDFINEGQKIYIDDNNKKVFLEKLKKDVEFLAQLKLMDYSLLVGIHDVERAEQEEVECEENDGEEEGESDGTHPVGTPPDSPGNTLNSSPPLAPGEFDPNIDVYGIKCHENSPRKEVYFMAIIDILTHYDAKKKAAHAAKTVKHGAGAEISTVNPEQYSKRFLDFIGHILT
B3: PIP4K2C (purified) (protein)
chain: MASSSVPPATVSAATAGPGPGFGFASKTKKKHFVQQKVKVFRAADPLVGVFLWGVAHSINELSQVPPPVMLLPDDFKASSKIKVNNHLFHRENLPSHFKFKEYCPQVFRNLRDRFGIDDQDYLVSLTRNPPSESEGSDGRFLISYDRTLVIKEVSSEDIADMHSNLSNYHQYIVKCHGNTLLPQFLGMYRVSVDNEDSYMLVMRNMFSHRLPVHRKYDLKGSLVSREASDKEKVKELPTLKDMDFLNKNQKVYIGEEEKKIFLEKLKRDVEFLVQLKIMDYSLLLGIHDIIRGSEPEEEAPVREDESEVDGDCSLTGPPALVGSYGTSPEGIGGYIHSHRPLGPGEFESFIDVYAIRSAEGAPQKEVYFMGLIDILTQYDAKKKAAHAAKTVKHGAGAEISTVHPEQYAKRFLDFITNIFA
B4: GST-PIP4K2C^VD (enzyme)
chain: MASSSVPPATVSAATAGPGPGFGFASKTKKKHFVQQKVKVFRAADPLVGVFLWGVAHSINELSQVPPPEIFLPNNFKASSKIKVNNHLFHRENLPSHFKFKEYCPQVFRNLRDRFGIDDQDYLVSLTRNPPSESEGSDGRFLISYDRTLVIKEVSSEDIADMHSNLSNYHQYIVKCHGNTLLPQFLGMYRVSVDNEDSYMLVMRNMFSHRLPVHRKYDLKGSLVSREASDKEKVKELPTLKDMDFLNKNQKVYIGEEEKKIFLEKLKRDVEFLVQLKIMDYSLLLGIHDIIRGSEPEEEAPVREDESEVDGDCSLTGPPALVGSYGTSPEGIGGYIHSHRPLGPGEFESFIDVYAIRSAEGAPQKEVYFMGLIDILTQYDAKKKAAHAAKTVKHGAGAEISTVHPEQYAKRFLDFITNIFA
notes: the text and the Quik-2CVD primer give EIF, which is used here; not shown: glutathione S-transferase (GST) tag from a pGEX vector

Key:
[1] = target: PIP5K1A (purified, in vitro kinase assay) (UniProt Q99755)
[2] = target: T2, PIP5K1A (Homo sapiens, UniProt Q99755); test: In vitro kinase assay: conversion of PI(4)P to radiolabeled PI(4,5)P2 by PIP5K1A with purified PIP4K proteins added; assay type: biochemical; details: for inhibition of PIP5K1A activity (PI(4)P to PI(4,5)P2): purified proteins, PI(4)P liposomes, 2-10 fold molar excess of PIP4K
T2 construct: made in house; host or cells: E. coli
Procedure: BL21 bacterial cells were transfected with pGEX vectors with PIP4K isoform coding sequence variants. Cells were grown in 1 L of TB at 37° at 200 rpm until 0.8 OD, at which point 500 uL of 1M IPTG was added. Cultures were shaken overnight at room temp for protein induction and pelleted at 5000 g for 15 minutes. Cells were lysed (50 mM Tris pH 7.5, 500 mM NaCl, 10 mM MgCl2, 10% glycerol, DTT, lysozyme, protein/phosphatase inhibitors), sonicated for 1 minute (output 4, continuous duty cycle) and spun down at 10,000 g for 1 hour. Supernatant was kept for further purification and cleavage according to manufacturer's protocol using glutathione sepharose beads.
Cells were trypsinized and normalized for cell number. Cell pellets, or E. coli purified proteins were resuspended in HNE buffer (20 mM HEPES pH 7.4, 100 mM NaCl, 0.5 mM EGTA), and sonicated in the presence of 32P-γ-ATP, and liposomes (10 ug PS, 1 ug PI(4)P in 30 mM HEPES pH 7.4, 1 mM EGTA). Liposome lipids were purchased from Avanti. Reactions were stopped by addition of 50 uL of 4N HCL. To extract lipids, 100 μL of MeOH:CHCl3 (1:1) was added and samples were vortexed 2×30 seconds. Samples were spun down at top speed for 2 min and the organic phase containing phosphatidylinositol lipids (bottom) were separated using thin-layer chromatography (TLC) using 1-propanol: 2N acetic acid (65:35 v/v). TLC plates were prepared ahead of time by coating with 1% Potassium Oxalate. Phosphorylated lipids were visualized by autoradiography on a GE Typhoon FLA 7000 and quantified using ImageQuant TL software.

[3] = target: T1, PIP5K1A (purified, in vitro kinase …)
[4] = target: endogenous PIP5K1A (293T lysate) (UniProt Q99755 1-562, limits assumed); test: GST pulldown from 293T lysates with bead-bound bait, western blot (FIG. 3J)
Procedure: These lysates and purified protein were incubated together at 4 degrees for 1 hour before the beads were again pelleted, washed with IP buffer three times, eluted with 2M NaCl, and analyzed by SDS PAGE and western blot.

| Molecule | in vitro kinase assay: conversion of PI(4)P to radiolabeled PI(4,5)P2 by PIP5K1A (FIG. 4H) [1] | inhibition of PIP5K1A activity (PI(4)P to PI(4,5)P2) [2] | in vitro kinase assay: conversion of PI(4)P to radiolabeled PI(4,5)P2 by PIP5K1A (FIG. 3K) [3] | further results |
| --- | --- | --- | --- | --- |
| GST-PIP4K2C 91REN to 91EED | Mutating 74DD to be 74NN or mutating 91REN to be 91 EED within GST-PIP4K2C did not prevent this protein from inhibiting PIP5K1A | – | – | – |
| GST-PIP4K2C 74DD to 74NN | Mutating 74DD to be 74NN or mutating 91REN to be 91 EED within GST-PIP4K2C did not prevent this protein from inhibiting PIP5K1A | – | – | – |
| B1 | – | inhibited | – | – |
| B2 | – | inhibited | – | inhibition of PIP5K1A activity in presence of detergent ([2]; 0.1% Triton-X100, no PI(4)P liposomes): eliminated the ability of PIP4K2A to inhibit PIP5K1A |
| B3 | – | – | PIP5K1A, which is inhibited by PIP4K2C but not PIP4K2C^VD | – |
| B4 | – | – | PIP4K2C^VD failed to inhibit PIP5K1A activity | binding result [4]: no binding |
